This is an account of results in PMC8191293.

Data set [1] is described as follows: flow cytometry, cell surface PMP22, rat Schwann cells. The settings on record: glycan lost; control: same variant with N41 intact. In general terms: A flow cytometer gives signals particle by particle.
The nature of data set [2]: flow cytometry, total cellular PMP22, HEK293. As to conditions: glycan lost; control: same variant with N41 intact.
The nature of data set [3]: single-cell flow cytometry, surface/total PMP22, HEK293. The settings on record: glycan lost.
Data set [4] can be described thus: flow cytometry, total PMP22, primary rat Schwann cells. The settings on record: glycan lost; control: same variant with N41 intact.
Data set [5] can be described thus: flow cytometry, trafficking efficiency, rat Schwann cells. As to conditions: glycan lost; control: same variant with N41 intact.
Data set [6] in a line: flow cytometry, normalized trafficking efficiency of WT PMP22. As to conditions: glycan lost; control: WT PMP22 in untreated or DMSO-treated HEK293.
The nature of data set [7]: flow cytometry, trafficking efficiency of CMTD PMP22 variants. The settings on record: glycan lost; control: same CMTD variant in untreated HEK293.
A short description of data set [8]: flow cytometry, cell surface PMP22, HEK293. As to conditions: glycan lost; control: same CMTD variant with N41 intact.
A short description of data set [9]: flow cytometry, trafficking efficiency. As to conditions: glycan changed form; control: WT PMP22 in parental HEK293.
A short description of data set [10]: flow cytometry, total cellular PMP22. The settings on record: glycan changed form; control: WT PMP22 in parental HEK293.

Substitutions are numbered along the chain they refer to. Names and notes keep the numbering of the source.

B1: peripheral myelin protein 22 (PMP22): L16P/N41Q (protein)
parent chain: MLLLLLSIIVLHVAVPVLLFVSTIVSQWIVGNGHATDLWQNCSTSSSGNVHHCFSSSPNEWLQSVQATMILSIIFSILSLFLFFCQLFTLTKGGRFYITGIFQILAGLCVMSAAAIYTVRHPEWHLNSDYSYGFAYILAWVAFPLALLSGVIYVILRKRE
For B1, the localisation_or_trafficking entry in data set [1] and in [5] was “increases” throughout. In addition, the expression_or_secretion entry in data set [2] and in [4] was “no change” each time. The “localisation_or_trafficking, other: trafficking efficiency” value in data set [3] (control: L16P PMP22) is “increases, 34 ± 10 vs 3 ± 1”.

B2: peripheral myelin protein 22 (PMP22): C19 (protein)
parent chain: B1 parent chain with P16L
As to B2, in data set [6], the “localisation_or_trafficking, fold_change” value is listed as “increases”.

B3: peripheral myelin protein 22 (PMP22): N41Q (protein)
parent chain: B1 parent chain with P16L
Turning to B3, in data set [3] (control: wild type), the “localisation_or_trafficking, other: trafficking efficiency” value was “increases, 53 ± 7 vs 19 ± 5”.

B4: peripheral myelin protein 22 (PMP22): STT3A KO (protein)
parent chain: B1 parent chain with P16L
B4: the localisation_or_trafficking result in [7] is on record as “no change”. Also, in [6], the “localisation_or_trafficking, fold_change” value was “no change”.

B5: peripheral myelin protein 22 (PMP22): T118M/N41Q (protein)
parent chain: B1 parent chain with P16L, T118M
For B5, the expression_or_secretion result in data set [2] is “increases”. For the same protein, the localisation_or_trafficking entry in data set [8] was “increases”.

B6: peripheral myelin protein 22 (PMP22): G93R/N41Q (protein)
parent chain: B1 parent chain with P16L, G93R
Take B6: the expression_or_secretion result in data set [2] is recorded as “increases”. Moreover, the localisation_or_trafficking result in data set [8] is on record as “increases”.

B7: peripheral myelin protein 22 (PMP22): A67T/N41Q (protein)
parent chain: B1 parent chain with P16L, A67T
Regarding B7, the expression_or_secretion result in data set [2] is “increases”. Further, in data set [8], the localisation_or_trafficking entry is “increases”.

B8: peripheral myelin protein 22 (PMP22): STT3B KO (protein)
parent chain: B1 parent chain with P16L
On to B8, for which the localisation_or_trafficking result in [7] is “no change”. Besides, the “localisation_or_trafficking, fold_change” value in [6] is listed as “increases”.

B9: peripheral myelin protein 22 (PMP22): NGI-1 (protein)
parent chain: B1 parent chain with P16L
With B9, in data set [7], the localisation_or_trafficking entry is on record as “increases”. Further, the “localisation_or_trafficking, fold_change” value in data set [6] is reported as “increases”.

B10: peripheral myelin protein 22 (PMP22): UGGT1 KO (protein)
parent chain: B1 parent chain with P16L
With B10, the localisation_or_trafficking result in data set [9] is recorded as “decreases”. Besides, the expression_or_secretion result in [10] is reported as “decreases”.
